Paper PMC4020902

Biological target: human USP11 N-terminal DUSP-UBL (DU) domains, residues 24-244 (human)
Assay: SEC; gel filtration of hUSP11DU at concentrations associated with crystallization

## human USP11 N-terminal DUSP-UBL (DU) domains, residues 24-244 (domain or fragment)
  fraction of dimer: 5%
